The test deals with Siglec-10 receptor overexpressed on CHO cells (UniProt Q96LC7).
Chain of UniProt Q96LC7 (Q96LC7 17-697): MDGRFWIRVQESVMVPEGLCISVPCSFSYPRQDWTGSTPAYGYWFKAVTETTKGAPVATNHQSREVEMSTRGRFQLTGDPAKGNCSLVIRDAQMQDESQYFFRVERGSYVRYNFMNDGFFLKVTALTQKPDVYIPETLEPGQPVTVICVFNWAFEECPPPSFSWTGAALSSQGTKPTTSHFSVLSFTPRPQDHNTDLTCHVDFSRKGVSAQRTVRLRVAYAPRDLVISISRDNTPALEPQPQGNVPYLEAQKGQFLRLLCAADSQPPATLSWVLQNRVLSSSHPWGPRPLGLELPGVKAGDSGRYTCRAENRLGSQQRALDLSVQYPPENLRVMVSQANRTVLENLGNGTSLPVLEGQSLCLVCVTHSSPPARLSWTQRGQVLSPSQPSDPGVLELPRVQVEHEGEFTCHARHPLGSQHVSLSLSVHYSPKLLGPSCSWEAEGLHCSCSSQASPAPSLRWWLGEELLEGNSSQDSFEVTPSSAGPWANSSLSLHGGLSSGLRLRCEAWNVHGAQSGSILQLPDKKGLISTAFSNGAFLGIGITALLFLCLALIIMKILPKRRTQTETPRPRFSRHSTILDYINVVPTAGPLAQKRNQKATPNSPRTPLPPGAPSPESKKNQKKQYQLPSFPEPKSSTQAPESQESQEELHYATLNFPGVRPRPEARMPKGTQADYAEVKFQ

“flagella (flagellin FlaA) of C. jejuni 11168H WT (from UniProt P56963 1-572) (natural protein)” gave an IL-10 secretion (ELISA) of Siglec-10 transduced RAW264.7 cells against GFP control-transduced cells, infection with live 11168H WT, MOI 100, 24 hours of 2 fold.

The values are drawn from article PMC4195440.
